The assay concerns the target T1, bacterially purified Epac1 (amino acids 149–882) (human, UniProt O95398-3 149-881).
T1 sequence (looked up): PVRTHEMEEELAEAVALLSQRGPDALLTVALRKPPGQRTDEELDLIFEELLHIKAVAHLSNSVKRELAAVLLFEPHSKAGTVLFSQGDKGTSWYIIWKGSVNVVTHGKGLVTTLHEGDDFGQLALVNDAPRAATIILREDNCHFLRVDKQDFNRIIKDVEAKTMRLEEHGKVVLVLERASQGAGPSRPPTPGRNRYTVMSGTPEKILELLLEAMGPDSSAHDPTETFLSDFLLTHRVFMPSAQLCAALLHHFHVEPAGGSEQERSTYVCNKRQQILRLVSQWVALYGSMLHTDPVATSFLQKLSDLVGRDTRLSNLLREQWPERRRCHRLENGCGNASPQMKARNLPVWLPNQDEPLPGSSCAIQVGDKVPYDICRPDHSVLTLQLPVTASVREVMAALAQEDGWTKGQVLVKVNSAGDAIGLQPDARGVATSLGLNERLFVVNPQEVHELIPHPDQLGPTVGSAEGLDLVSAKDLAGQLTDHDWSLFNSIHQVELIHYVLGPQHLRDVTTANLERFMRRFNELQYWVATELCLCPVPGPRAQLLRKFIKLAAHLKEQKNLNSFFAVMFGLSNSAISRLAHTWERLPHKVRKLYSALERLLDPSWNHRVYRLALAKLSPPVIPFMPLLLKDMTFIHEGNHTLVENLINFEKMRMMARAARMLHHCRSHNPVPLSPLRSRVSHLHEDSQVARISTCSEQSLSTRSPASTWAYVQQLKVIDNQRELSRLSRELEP
Put plainly: pull-down.

B1: GST-tagged bacterially purified ZNF domain of RanBP2 (domain or fragment, UniProt P49792 1341-1819, looked up)
chain: NLNFEFQVAKKEGSWWHCNSCSLKNASTAKKCVSCQNLNPSNKELVGPPLAETVFTPKTSPENVQDRFALVTPKKEGHWDCSICLVRNEPTVSRCIACQNTKSANKSGSSFVHQASFKFGQGDLPKPINSDFRSVFSTKEGQWDCSACLVQNEGSSTKCAACQNPRKQSLPATSIPTPASFKFGTSETSKTLKSGFEDMFAKKEGQWDCSSCLVRNEANATRCVACQNPDKPSPSTSVPAPASFKFGTSETSKAPKSGFEGMFTKKEGQWDCSVCLVRNEASATKCIACQNPGKQNQTTSAVSTPASSETSKAPKSGFEGMFTKKEGQWDCSVCLVRNEASATKCIACQNPGKQNQTTSAVSTPASSETSKAPKSGFEGMFTKKEGQWDCSVCLVRNEASATKCIACQCPSKQNQTTAISTPASSEISKAPKSGFEGMFIRKGQWDCSVCCVQNESSSLKCVACDASKPTHKPIAEAPS
In the case of B1, the binding result was “binds”.

(Values after paper PMC3115801 (The Journal of Cell Biology, 2011).)
